How the values were obtained:
[1] = biological target: CpcA, α-subunit of phycocyanin (Synechocystis sp. PCC 6803); experiment: densitometry of Zn-chromophore fluorescence bands of affinity-eluted proteins
[2] = biological target: allophycocyanin (AP) core cylinders of the Synechocystis phycobilisome
[3] = biological target: allophycocyanin (AP) core cylinders of the Synechocystis phycobilisome; remark: listed apart in the source
[4] = biological target: allophycocyanin (AP) core cylinders of the Synechocystis phycobilisome; remark: listed apart in the source

| Substance | CpcB/CpcA Zn-chromophore fluorescence ratio in the eluted fraction [1] | Chl a fluorescence yield at 700 nm, normalized to [Chl], relative to Δcpc (relative to Δcpc (=1.00)) [2] | rate constant kII of PSII photochemistry, 620 nm actinic light, DCMU-treated intact cells [3] | Chl a fluorescence yield normalized to Chl, relative to Δcpc (relative to Δcpc (=1.0)) [4] | kII of PSII photochemistry minus the kII of Δcpc, 620 nm actinic light, 12 µM DCMU [4] |
| --- | --- | --- | --- | --- | --- |
| CpcB*S7*6xHis*tev*TTFC fusion protein | 1.4 | – | – | – | – |
| (α,β*)3CpcG heterohexameric complex | – | 1.74 | 1.57 fold of Δcpc | – | – |
| (α,β)3CpcG1*IFN complex | – | – | – | 1.55 | 22.4 % of WT |
| (α,β*TTFC)3CpcG1*IFN heterohexameric complex | – | – | – | 1.45 | 13.4 % of WT |
| (α,β*TTFC)3CpcG heterohexameric complex | – | 1.66 | 1.39 fold of Δcpc | – | – |
| (α,β*IFN)3CpcG heterohexameric complex | – | 1.84 | 1.46 fold of Δcpc | – | – |

From patent US20240376174A1
